B1: Lon protease homolog, mitochondrial (Homo sapiens), P36776 (parent)
chain: MAASTGYVRLWGAARCWVLRRPMLAAAGGRVPTAAGAWLLRGQRTCDASPPWALWGRGPAIGGQWRGFWEASSRGGGAFSGGEDASEGGAEEGAGGAGGSAGAGEGPVITALTPMTIPDVFPHLPLIAITRNPVFPRFIKIIEVKNKKLVELLRRKVRLAQPYVGVFLKRDDSNESDVVESLDEIYHTGTFAQIHEMQDLGDKLRMIVMGHRRVHISRQLEVEPEEPEAENKHKPRRKSKRGKKEAEDELSARHPAELAMEPTPELPAEVLMVEVENVVHEDFQVTEEVKALTAEIVKTIRDIIALNPLYRESVLQMMQAGQRVVDNPIYLSDMGAALTGAESHELQDVLEETNIPKRLYKALSLLKKEFELSKLQQRLGREVEEKIKQTHRKYLLQEQLKIIKKELGLEKDDKDAIEEKFRERLKELVVPKHVMDVVDEELSKLGLLDNHSSEFNVTRNYLDWLTSIPWGKYSNENLDLARAQAVLEEDHYGMEDVKKRILEFIAVSQLRGSTQGKILCFYGPPGVGKTSIARSIARALNREYFRFSVGGMTDVAEIKGHRRTYVGAMPGKIIQCLKKTKTENPLILIDEVDKIGRGYQGDPSSALLELLDPEQNANFLDHYLDVPVDLSKVLFICTANVTDTIPEPLRDRMEMINVSGYVAQEKLAIAERYLVPQARALCGLDESKAKLSSDVLTLLIKQYCRESGVRNLQKQVEKVLRKSAYKIVSGEAESVEVTPENLQDFVGKPVFTVERMYDVTPPGVVMGLAWTAMGGSTLFVETSLRRPQDKDAKGDKDGSLEVTGQLGEVMKESARIAYTFARAFLMQHAPANDYLVTSHIHLHVPEGATPKDGPSAGCTIVTALLSLAMGRPVRQNLAMTGEVSLTGKILPVGGIKEKTIAAKRAGVTCIVLPAENKKDFYDLAAFITEGLEVHFVEHYREIFDIAFPDEQAEALAVER
partner: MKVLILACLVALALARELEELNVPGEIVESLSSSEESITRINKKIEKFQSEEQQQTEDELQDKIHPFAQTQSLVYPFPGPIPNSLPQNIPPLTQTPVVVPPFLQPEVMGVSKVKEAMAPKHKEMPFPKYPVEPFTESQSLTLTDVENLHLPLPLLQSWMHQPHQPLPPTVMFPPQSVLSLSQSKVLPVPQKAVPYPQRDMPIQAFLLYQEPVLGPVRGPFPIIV

Variants of: B1
Conditions: with casb_bovin CSN2, P02666

effect of a mutation on the interaction | Variant
decreasing interaction | W770P

Variants of: B1
Conditions: with casb_bovin CSN2, P02666
Remark: another data set of the same source

effect of a mutation on the interaction | Variant
decreasing interaction | G893P

Variants of: B1
Conditions: with casb_bovin CSN2, P02666
Remark: another data set of the same source

effect of a mutation on the interaction | Variant
decreasing interaction | G893P;G894A

Variants of: B1
Conditions: with casb_bovin CSN2, P02666
Remark: another data set of the same source

effect of a mutation on the interaction | Variant
decreasing interaction | K529R

Variants of: B1
Conditions: with casb_bovin CSN2, P02666
Remark: another data set of the same source

effect of a mutation on the interaction | Variant
decreasing interaction | G893A;G894P

Variants of: B1
Conditions: with casb_bovin CSN2, P02666
Remark: another data set of the same source

effect of a mutation on the interaction | Variant
decreasing interaction | G894P

Reference: IntAct's records for PubMed 24520911
